Laboratory results published in patent US20110275122A1 (Amgen, published 2011).

T1: c-mpl receptor (Homo sapiens (Human), UniProt P40238 26-491, The MPL used for panning was biotinylated; the biotin site is not stated and is not carried by the letters.)
T1 construct: also called TPO receptor
T1 sequence: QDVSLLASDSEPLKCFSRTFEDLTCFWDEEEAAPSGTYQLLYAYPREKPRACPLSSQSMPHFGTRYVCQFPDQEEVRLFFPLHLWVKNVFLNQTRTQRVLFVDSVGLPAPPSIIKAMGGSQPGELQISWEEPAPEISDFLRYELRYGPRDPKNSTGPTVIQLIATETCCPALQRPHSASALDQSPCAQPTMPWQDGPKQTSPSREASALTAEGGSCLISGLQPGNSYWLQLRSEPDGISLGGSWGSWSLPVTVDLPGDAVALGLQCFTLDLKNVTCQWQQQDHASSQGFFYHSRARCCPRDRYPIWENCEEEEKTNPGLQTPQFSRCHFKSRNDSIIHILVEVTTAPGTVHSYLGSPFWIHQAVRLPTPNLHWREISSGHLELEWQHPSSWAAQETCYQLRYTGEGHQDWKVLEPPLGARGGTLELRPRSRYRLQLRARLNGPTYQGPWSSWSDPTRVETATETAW

T2: human mpl receptor (human, UniProt P40238 26-635)
T2 sequence (looked up): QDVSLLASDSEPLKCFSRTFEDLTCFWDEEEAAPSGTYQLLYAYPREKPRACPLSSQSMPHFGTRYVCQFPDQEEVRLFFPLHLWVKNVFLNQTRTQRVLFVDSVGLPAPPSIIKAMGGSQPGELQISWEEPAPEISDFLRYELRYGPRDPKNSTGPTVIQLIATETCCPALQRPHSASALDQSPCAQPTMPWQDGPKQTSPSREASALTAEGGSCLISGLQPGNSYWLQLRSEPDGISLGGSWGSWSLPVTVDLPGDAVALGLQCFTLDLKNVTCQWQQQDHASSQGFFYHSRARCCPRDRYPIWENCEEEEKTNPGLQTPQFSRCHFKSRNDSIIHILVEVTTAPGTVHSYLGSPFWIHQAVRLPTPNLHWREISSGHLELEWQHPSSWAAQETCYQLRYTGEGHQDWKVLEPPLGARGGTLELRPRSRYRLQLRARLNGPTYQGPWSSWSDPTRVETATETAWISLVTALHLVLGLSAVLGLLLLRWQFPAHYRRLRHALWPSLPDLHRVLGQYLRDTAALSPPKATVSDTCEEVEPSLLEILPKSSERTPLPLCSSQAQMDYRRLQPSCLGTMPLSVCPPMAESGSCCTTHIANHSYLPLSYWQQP


Columns and labels:
[1] = target: T1, c-mpl receptor; assay: phage-ELISA
[2] = target: T2, human mpl receptor; assay: cell-based or functional assay
[3] = target: T2, human mpl receptor; assay: cell-based or functional assay; remark: listed apart in the source

Relative activity [1] | EC50 on 32Dc123/Mpl [2] [nM] | In vitro EC50 [3] [nM] | Binder
80.7 | – | – | IEGPTLHEWLALLRSHS [SEQ ID NO: 333]
88.4 | – | – | IEGPTLHEWLAERRKHS [SEQ ID NO: 332]
17.9 | – | – | IEGPTFKQWQKLRLGHS [SEQ ID NO: 319]
12.1 | – | – | IEGPTFKQWQRLRKNHS [SEQ ID NO: 329]
64.5 | – | – | IEGPTLHEWLRQRRQHS [SEQ ID NO: 336]
13.8 | – | – | IEGWQEGRQSAARA [SEQ ID NO: 324]
75.9 | – | – | IEGPTLHEWLAQRREHS [SEQ ID NO: 334]
14.7 | – | – | IEGPTFKQWQKWRLSHS [SEQ ID NO: 323]
12.6 | – | – | IEGPTFKQWQLWRLQHS [SEQ ID NO: 327]
16.4 | – | – | IEGWIWRQWLMQTLWHS [SEQ ID NO: 321]
17.8 | – | – | IEGPTFKQWQLMGFPHS [SEQ ID NO: 320]
73.7 | – | – | IEGPTLHEWLLYRRAHS [SEQ ID NO: 335]
7.11 | – | – | IEGLLSQLWQAARA [SEQ ID NO: 330]
117 | – | – | IEGPSLPEWLHVWRHHS [SEQ ID NO: 331]
16.4 | – | – | IEGPTFKQWQAMRKNHS [SEQ ID NO: 322]
13.5 | – | – | IEGPTFKQWQRWLKYHS [SEQ ID NO: 325]
13.2 | – | – | SEQ ID NO: 326 (peptide) peptide: IEGNYWFWQQVGQENTLSREWIQTLGQKYWYRPPSICAQIEGWSRHQHYSAMSGHS
24.9 | – | – | IEVWQSHWYQAARALESTSSRLLPMRPPPSICAQIEGPTLPQRMAARA [SEQ ID NO: 316]
21.6 | – | – | IEGPTFKQWQALRKRHS [SEQ ID NO: 318]

More lines, now with the values behind:

Binder | Relative activity [1] | EC50 on 32Dc123/Mpl [2] [nM] | In vitro EC50 [3] [nM]
IEGSYRERQQAARA [SEQ ID NO: 308] | 35.2 | – | –
IEGRHYQKWPARRLGHS [SEQ ID NO: 302] | 52 | – | –
IEGPTFKQWQAWRRWHS [SEQ ID NO: 315] | 28.1 | – | –
IEGQEPTRLRLQMDRHS [SEQ ID NO: 304] | 48.3 | – | –
IEGEALVFWWAARA [SEQ ID NO: 307] | 40.3 | – | –
IEGPTFKQWQAMRRHS [SEQ ID NO: 313] | 28.4 | – | –
IAQVRMLGRFTLLVLSRARAASTQLSFQHSICAQIEGGAQTQWDAARA [SEQ ID NO: 305] | 47.4 | – | –
IEGEALVFWWRVRGGHS [SEQ ID NO: 294] | 73.9 | – | –
IEGWTRRQWLAARA [SEQ ID NO: 311] | 33.3 | – | –
IEGWNPWRGAASRV [SEQ ID NO: 310] | 33.9 | – | –
IEGMVKLGVIRLLVL [SEQ ID NO: 314] | 28.3 | – | –
IEGFVGTVDWRQGRPHS [SEQ ID NO: 303] | 49.8 | – | –
IEGEIWAGPGAARA [SEQ ID NO: 306] | 46.5 | – | –
Fc-Loop (Asym) (SEQ ID NO: 9) (Fc fusion) MDKTHTCPPCPAPELLGGPSVFLFPPKPKDTLMISRTPEVTCVVVDVSHEDPEVKFNWYVDGVEVHNAKTKPREEQYNSTYRVVSVLTVLHQDWLNGKEYKCKVSNKALPAPIEKTISKAKGQPREPQVYTLPPSRDELGGGGQGCSSGGPTLREWQQCRRMQHSGGTKNQVSLTCLVKGFYPSDIAVEWESNGQPENNYKTTPPVLDSDGSFFLYSKLTVDKSRWQQGNVFSCSVMHEALHNHYTQKSLSLSPGK | – | 0.013 | 0.0127
Fc-Loop (Asym) (SEQ ID NO: 243) (Fc fusion) MDKTHTCPPCPAPELLGGPSVFLFPPKPKDTLMISRTPEVTCVVVDVSHEDPEVKFNWYVDGVEVHNAKTKPREEQYNSTYRVVSVLTVLHQDWLNGKEYKCKVSNKALPAPIEKTISKAKGQPREPQVYTLPPSRDELGGGGQGCSSGGPTLREWQQCVRMQHSGGTKNQVSLTCLVKGFYPSDIAVEWESNGQPENNYKTTPPVLDSDGSFFLYSKLTVDKSRWQQGNVFSCSVMHEALHNHYTQKSLSLSPGK | – | 0.006 | 0.0057
IEGWTWQFYALPRGDHS [SEQ ID NO: 297] | 63.2 | – | –
Fc-Loop (Sym) (SEQ ID NO: 9) (Fc fusion) MDKTHTCPPCPAPELLGGPSVFLFPPKPKDTLMISRTPEVTCVVVDVSHEDPEVKFNWYVDGVEVHNAKTKPREEQYNSTYRVVSVLTVLHQDWLNGKEYKCKVSNKALPAPIEKTISKAKGQPREPQVYTLPPSRDELGGQGCSSGGPTLREWQQCRRMQHSGGTKNQVSLTCLVKGFYPSDIAVEWESNGQPENNYKTTPPVLDSDGSFFLYSKLTVDKSRWQQGNVFSCSVMHEALHNHYTQKSLSLSPGK | – | 0.015 | 0.0137
Fc-Loop (Sym) (SEQ ID NO: 243) (Fc fusion) MDKTHTCPPCPAPELLGGPSVFLFPPKPKDTLMISRTPEVTCVVVDVSHEDPEVKFNWYVDGVEVHNAKTKPREEQYNSTYRVVSVLTVLHQDWLNGKEYKCKVSNKALPAPIEKTISKAKGQPREPQVYTLPPSRDELGGQGCSSGGPTLREWQQCVRMQHSGGTKNQVSLTCLVKGFYPSDIAVEWESNGQPENNYKTTPPVLDSDGSFFLYSKLTVDKSRWQQGNVFSCSVMHEALHNHYTQKSLSLSPGK | – | 0.01 | 0.0099
Fc-Loop (Sym)(SEQ ID NO: 244) (Fc fusion) MDKTHTCPPCPAPELLGGPSVFLFPPKPKDTLMISRTPEVTCVVVDVSHEDPEVKFNWYVDGVEVHNAKTKPREEQYNSTYRVVSVLTVLHQDWLNGKEYKCKVSNKALPAPIEKTISKAKGQPREPQVYTLPPSRDELGGQGCSSGGPTLREWQQCRRAQHSGGTKNQVSLTCLVKGFYPSDIAVEWESNGQPENNYKTTPPVLDSDGSFFLYSKLTVDKSRWQQGNVFSCSVMHEALHNHYTQKSLSLSPGK | – | 0.012 | –
